Results: paper PMC6787082, “The cell cycle-regulated DNA adenine methyltransferase CcrM opens a bubble at its DNA recognition site”

B1: GAATC 18-bp duplex with 1-nt overhangs (dsDNA)
DNA 1: CGATTCAATGAATCCCAAG
DNA 2: GCTTGGGATTCATTGAATC
B2: Hemimethylated GAATC duplex (dsDNA)
DNA 1: CGATTCAATGAATCCCAAG
DNA 2: GCTTGGGATTCATTGAATC
modifications: N6-methyladenine (printed M) at position 8 of strand 2 (GATTC, non-target strand)

Columns and labels:
CcrM [1] = target: T1, CcrM (Caulobacter crescentus, UniProt P0CAW2 1-358); experiment: X-ray crystallography (2.34 A); sinefungin; Co-crystallization: protein stock in 20 mM HEPES pH 8.0, 300 mM NaCl, 5% glycerol, 0.5 mM TCEP; ~1:1 monomer:duplex (~56 uM), 5x sinefungin; well 0.1 M HEPES pH 7.8, 10% PEG 8000, 3% PEG 6000; 19 C; details: protein: recombinant; tags: N-terminal His-tag; chain copies: 2; 5' overhang 1 nt on each strand (C and G), 18 bp
T1 sequence (P0CAW2 whole entry): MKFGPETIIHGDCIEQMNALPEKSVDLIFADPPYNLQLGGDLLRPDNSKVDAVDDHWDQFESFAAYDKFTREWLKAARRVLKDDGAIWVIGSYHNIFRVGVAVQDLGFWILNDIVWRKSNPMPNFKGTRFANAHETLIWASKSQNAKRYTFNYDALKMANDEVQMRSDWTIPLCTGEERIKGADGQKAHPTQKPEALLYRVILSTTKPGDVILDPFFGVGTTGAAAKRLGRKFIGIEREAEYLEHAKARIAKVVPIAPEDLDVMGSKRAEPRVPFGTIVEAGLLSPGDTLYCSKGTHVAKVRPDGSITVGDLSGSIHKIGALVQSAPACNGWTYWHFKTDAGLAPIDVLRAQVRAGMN

CcrM [2] = target: T1, CcrM; experiment: X-ray crystallography (2.7 A); sinefungin; Co-crystallization: protein stock in 20 mM HEPES pH 8.0, 300 mM NaCl, 5% glycerol, 0.5 mM TCEP; ~1:1 monomer:duplex (~56 uM), 5x sinefungin; well 0.1 M HEPES pH 7.8, 10% PEG 8000, 3% PEG 6000; 19 C; details: protein: recombinant; tags: N-terminal His-tag; chain copies: 2; 5' overhang 1 nt on each strand, 18 bp

Binder	binding result (CcrM [1])	binding result (CcrM [2])
B1	binds	–
B2	–	binds
